Data from patent publication US10689452 (UNIVERSIT T STUTTGART, dated 2020).

Assays:
[1] = molecular target: T1, human TNFR1-Fc fusion protein (human, UniProt P19438 29-211); assay: QCM
T1 construct: range 29-211; Made in stably transfected HEK293 cells; coated on ELISA plates or immobilised on QCM chips; also called huTNFR1-Fc; human TNFR-Fc; not shown: Fc part from vector pSecTagL1-Fc
T1 sequence (looked up): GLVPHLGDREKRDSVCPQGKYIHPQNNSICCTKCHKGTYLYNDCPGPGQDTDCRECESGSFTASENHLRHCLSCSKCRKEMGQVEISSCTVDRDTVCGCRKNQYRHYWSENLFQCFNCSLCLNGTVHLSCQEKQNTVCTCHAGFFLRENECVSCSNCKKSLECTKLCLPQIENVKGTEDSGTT

[2] = molecular target: T1, human TNFR1-Fc fusion protein; assay: ELISA, human TNFR1-Fc
[3] = molecular target: T2, human TNFR1 on cells (HT1080, HeLa, Kym-1) (human, UniProt P19438 30-455); assay: cell-based or functional assay
T2 sequence (looked up): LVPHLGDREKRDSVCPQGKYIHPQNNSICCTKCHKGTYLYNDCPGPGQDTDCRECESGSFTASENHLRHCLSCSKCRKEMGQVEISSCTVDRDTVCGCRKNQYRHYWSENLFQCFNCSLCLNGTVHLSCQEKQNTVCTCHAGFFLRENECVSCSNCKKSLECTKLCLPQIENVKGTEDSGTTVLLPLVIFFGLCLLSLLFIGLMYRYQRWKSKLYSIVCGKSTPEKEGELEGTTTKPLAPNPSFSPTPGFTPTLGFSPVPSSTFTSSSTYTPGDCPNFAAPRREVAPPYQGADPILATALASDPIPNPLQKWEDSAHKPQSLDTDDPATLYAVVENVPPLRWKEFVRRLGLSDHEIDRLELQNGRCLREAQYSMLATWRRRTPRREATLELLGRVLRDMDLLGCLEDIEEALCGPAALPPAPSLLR

[4] = molecular target: T1, human TNFR1-Fc fusion protein; assay: QCM, human TNFR1-Fc, high receptor density (184 Hz), OneToOne analysis, KD2
Procedure: (§1) Real-time binding dynamics in protein-protein interactions were determined by quartz crystal microbalance measurements (A-100 C-Fast or Cell-200 C-Fast, Attana, Stockholm, Sweden). One of the binding partners (ligand, e.g. TNFR1-Fc) was chemically immobilized on a carboxyl sensor chip according to the manufacturer's protocol at different densities (nearly 200 Hz in the case of saturating conditions to confirm previously published results and 50-100 Hz, in particular at about 50 Hz, to establish conditions of lower receptor density, better resembling the situation on the cellular surface). Binding experiments were performed with samples (analyte) diluted in PBST (PBS, 0.1% Tween 20) at pH 7.4 with a flow rate of 25 µl/min at 37° C. The chip was regenerated with 25 µl 5 mM NaOH or 20 mM glycine, pH 2.0. Every third measurement, an injection of running buffer was measured which was subtracted from the binding curve.

[5] = molecular target: T1, human TNFR1-Fc fusion protein; assay: QCM, human TNFR1-Fc, high receptor density (184 Hz), OneToOne analysis, kon2
Procedure: as §1

[6] = molecular target: T1, human TNFR1-Fc fusion protein; assay: QCM, human TNFR1-Fc, high receptor density (184 Hz), OneToOne analysis, koff2
Procedure: as §1

[7] = molecular target: T2, human TNFR1 on cells (HT1080, HeLa, …); assay: cell-based or functional assay; remark: listed apart in the source
[8] = molecular target: T1, human TNFR1-Fc fusion protein; assay: QCM, moderate receptor density (86 Hz)
Procedure: as §1, with “curve. Data were collected using the software provided by Attana for the particular device and analyzed by Attaché Office Evaluation software (Attana, Stockholm, Sweden) and TraceDrawe (ridgview instruments, Vange, Sweden).” for “curve.”

[9] = molecular target: T1, human TNFR1-Fc fusion protein; assay: QCM, human TNFR1-Fc, moderate receptor density (86 Hz), KD1
Procedure: as §1, with “curve. Data were collected using the software provided by Attana for the particular device and analyzed by Attaché Office Evaluation software (Attana, Stockholm, Sweden) and TraceDrawe (ridgview instruments, Vange, Sweden).” for “curve.”

[10] = molecular target: T1, human TNFR1-Fc fusion protein; assay: QCM, human TNFR1-Fc, moderate receptor density (86 Hz), kon1
Procedure: as §1, with “curve. Data were collected using the software provided by Attana for the particular device and analyzed by Attaché Office Evaluation software (Attana, Stockholm, Sweden) and TraceDrawe (ridgview instruments, Vange, Sweden).” for “curve.”

[11] = molecular target: T1, human TNFR1-Fc fusion protein; assay: QCM, human TNFR1-Fc, moderate receptor density (86 Hz), koff1
Procedure: as §1, with “curve. Data were collected using the software provided by Attana for the particular device and analyzed by Attaché Office Evaluation software (Attana, Stockholm, Sweden) and TraceDrawe (ridgview instruments, Vange, Sweden).” for “curve.”

[12] = molecular target: T1, human TNFR1-Fc fusion protein; assay: ELISA on coated human TNFR1-Fc, reference curve next to Fab13.7PEG
Procedure: (§2) Microtiter plates were coated with 100 µl of the indicated protein (1 µg/ml in PBS, see Table 3.3) and incubated at 4° C. over night. The residual binding sites were blocked with 2% MPBS (skim milk in PBS, 200 µl per well) at room temperature for 2 hours and subsequently washed twice with PBS. 100 µl of the samples diluted in 2% MPBS were incubated at room temperature for 1 hour prior to the last incubation step with 100 µl of the HRP conjugated detection antibodies in 2% MPBS. In the case of competition experiments, both analyzed protein samples were prepared individually (either titrated or diluted to a single concentration) and mixed before they were applied to the plate. Bound protein was detected with 100 µl TMB substrate solution, the HRP-reaction was stopped by the addition of 50 µl 1 M H2SO4 and the absorption at the wavelength of 450 nm was measured using the Infinite microtiter plate reader (TECAN, Maennedorf, Switzerland). Between each incubation step and in advance of the detection, the plates were washed three times with PBST and twice with PBS.

[13] = molecular target: T1, human TNFR1-Fc fusion protein; assay: ELISA on coated human TNFR1-Fc, reference curve next to Fv13.7-Fckih0DS
Procedure: as §2

Row | fold improvement of KD compared with ATROSAB (bivalent binding) [1] [fold] | EC50 [2] [nM] | IL-6 release (pg/ml), HeLa cells [3] [pg/mL] | IL-8 release (pg/ml), HT1080 cells [3] [pg/mL] | Kd [4] [nM] | kon [5] [M⁻¹ s⁻¹] | koff [6] [s⁻¹] | IC50, IL-6 (nM); inhibition of the response of HeLa cells to 0.1 nM TNF [3] [nM] | IC50, IL-8 (nM); inhibition of the response of HT1080 cells to 0.1 nM TNF [3] [nM] | IC50 (read off the curve), inhibition of the interleukin release induced by 0.1 nM TNF (axis: IL-6 release [%]) [7] [nM] | fold stronger affinity than FabATR [8] [fold] | Kd [9] [nM] | kon [10] [M⁻¹ s⁻¹] | koff [11] [s⁻¹] | EC50 (read off the curve) [12] [nM] | EC50 (read off the curve) [13] [nM] | Binder | IC50, Cytotox (nM); inhibition of Kym-1 cell death by 0.01 nM TNF [3] [nM]
1 | 3.5 | 0.76 | 1450 | 4230 | 0.11 | 535000 | 5.92e-05 |  |  |  |  |  |  |  |  |  | IgG13.7 (antibody, V domains shown, Made transiently in HEK293T cells; also called IgG-FRK13.7) VH: HVQLVQSGAEVKKPGSSVKVSCKASGYTFTDFYINWVRQAPGQGLEWIGEIVPSQGEAKYNDKFKARVTITADKSTSTAYMELSSLRSEDTAVYYCARWDFLDYWGQGTTVTVSS VL: DVQMTQSPSSLSASVGDRVTITCRSSQSLLHSNGNTYLHWYQQKPGKAPKLLIYTVSNRFSGVPSRFSGSGSGTDFTLTISSLQPEDFATYYCSQSTHVPYTFGGGTKVEIK | 
2 |  | 1.4 | 101 | 138 |  |  |  | 31 | 19 | ~20 | 19 | 1.6 | 470000 | 0.000732 | ~2 | ~0.6 | Fab13.7 (Fab, V domains shown, also called Fab-FRK13.7; Fab3.7) VH: HVQLVQSGAEVKKPGSSVKVSCKASGYTFTDFYINWVRQAPGQGLEWIGEIVPSQGEAKYNDKFKARVTITADKSTSTAYMELSSLRSEDTAVYYCARWDFLDYWGQGTTVTVSS VL: DVQMTQSPSSLSASVGDRVTITCRSSQSLLHSNGNTYLHWYQQKPGKAPKLLIYTVSNRFSGVPSRFSGSGSGTDFTLTISSLQPEDFATYYCSQSTHVPYTFGGGTKVEIKR | 4.7
